Laboratory results from publication doi:10.1101/2023.09.21.558871, “Protein G-quadruplex interactions and their effects on phase transitions and protein aggregation”.

T1: Znf706 A2C-AF488 (Homo sapiens, UniProt Q9Y5V0 1-76, A2C)
T1 sequence: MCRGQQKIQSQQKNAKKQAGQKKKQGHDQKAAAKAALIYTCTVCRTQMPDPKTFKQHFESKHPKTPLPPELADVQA


Target: T1, Znf706 A2C-AF488
Assay: fluorescence anisotropy; 20 mM NaPi, 100 mM KCl, 0.05% NaN3, pH 7.4, 25 C (FP/anisotropy); unfolded G4: 20 mM Tris-HCl, 100 mM LiCl, pH 7.4; G4C2 also 20 mM NaPi, 100 mM NaCl, pH 7.4; NMR at 4 C or 37-50 C with 7.5% D2O
Settings: protein: recombinant; tags: AF488 label on Cys; His6-SUMO cleaved

Row | Binder | binding result
1 | TTTTTTTTTTTTTTTTTTTT (ssDNA) [polyT] | no binding
2 | AAAAAAAAAAAAAAAAAAAA (ssDNA) [polyA] | no binding
